Reference: US20170281764A1

Assays:
[1] = target: human TIGIT on cells (Jurkat-TIGIT cells; human T cells, NK cells and other blood cells) (human) (UniProt Q495A1); test: flow cytometry of human PBMCs, PE anti-TIGIT (clone MBSA43 per paragraph 220) against A488 anti-CD56; CD56+ TIGIT+ gate, unit not given; left panel (first of 3 donors)
[2] = target: human TIGIT on cells (Jurkat-TIGIT cells; human T cells, NK cells and other blood cells) (human) (UniProt Q495A1); test: flow cytometry of human PBMCs, PE anti-TIGIT (clone MBSA43 per paragraph 220) against A488 anti-CD56; CD56+ TIGIT+ gate, unit not given; right panel (third of 3 donors)
[3] = target: human TIGIT on cells (Jurkat-TIGIT cells; human T cells, NK cells and other blood cells) (human) (UniProt Q495A1); test: flow cytometry of human PBMCs, PE anti-TIGIT (clone MBSA43 per paragraph 220) against A488 anti-CD56; CD56+ TIGIT+ gate, unit not given; middle panel (second of 3 donors)
[4] = target: CD155 on K562 cells (human) (UniProt P15151); test: flow cytometry of K562 cells stained with APC-labelled anti-CD155 (clone SKII.4 per paragraph 220); percent of cells in the marker gate from about 2x10^1 to 10^4

Chain of human TIGIT on cells (Jurkat-TIGIT cells; human T cells, NK cells and other blood cells) (human) (Q495A1 22-244): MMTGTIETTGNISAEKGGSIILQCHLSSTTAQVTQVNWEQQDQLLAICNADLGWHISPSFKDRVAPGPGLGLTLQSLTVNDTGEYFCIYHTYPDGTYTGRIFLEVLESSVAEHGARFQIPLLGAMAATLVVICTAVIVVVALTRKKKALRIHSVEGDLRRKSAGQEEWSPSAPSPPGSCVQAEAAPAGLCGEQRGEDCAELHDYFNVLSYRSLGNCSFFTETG

Row | TIGIT+ NK Cells [1] | TIGIT+ NK Cells [2] | TIGIT+ NK Cells [3] | % CD155 [4] | Substance
1 | 4.84 | 5.47 | 8.03 |  | anti-human TIGIT antibody clone MBSA43 (commercial; eBiosciences / BioLegend)
2 |  |  |  | 98.5% | CD155 - APC (antibody)
